This assay deals with purified recombinant human α-synuclein (N-terminal histidine tagged) (human, UniProt P37840 1-140). Briefly: SPR; Biacore 3000; about 1500 RU of α-synuclein amine-coupled to a CM5 chip; peptides in two-fold dilutions (0.20-12.50 µM, in duplicate) injected 3 min at 30 µl/min, then 3 min dissociation; HBS pH 7.4 (10 mM HEPES, 150 mM NaCl, 3 mM EDTA, 0.005% P20); double-referenced; report points 20 s into dissociation (200 s). The conditions noted are these: both partners purified. For orientation: Surface plasmon resonance follows binding to a sensor surface in real time, without labels.

B1: Tat-βsyn-degron peptide (peptide)
peptide: YGRKKRRQRRRRTKSGVYLVGRRRG
notes: Tat plasma membrane transduction domain (HIV-1 Tat stretch); degron, proteasomal targeting signal; also called α-synuclein knockdown peptide; α-synuclein targeting peptide; source: synthetic peptide (GL Biochem, Shanghai)
Take B1: the binding result was “binds”.
